Assay results published in the Human Domainome abundance scans (Beltran et al. 2025).
± gives the uncertainty stated by the source.

B1: Nanos homolog 2, residues 63 to 115; numbered along this chain, P60321 (parent)
chain: CNFCKHNGESRHVYSSHQLKTPDGVVVCPILRHYVCPVCGATGDQAHTLKYCP
B2: Dynamin-binding protein, residues 146 to 206; numbered along this chain, Q6XZF7 (parent)
chain: SMGQARALMGLSAQLDEELDFREGDVITIIGVPEPGWFEGELEGRRGIFPEGFVELLGPLR

Variants of: B1
Assay: abundance fitness (aPCA) (normalised: wild type 0, dead -1); higher = more abundant; growth selection in yeast, the domain comes from the species named
Conditions: Homo sapiens
S15V gave an abundance fitness of -0.157 ± 0.073. S15H gave an abundance fitness of -0.095 ± 0.11. Work on V35D yielded an abundance fitness of -0.398 ± 0.1. V35E showed an abundance fitness of -0.076 ± 0.078. In the case of V35W, the abundance fitness is reported as -0.445 ± 0.12. Variant V35Y has an abundance fitness of -0.086 ± 0.16. Variant V35H has an abundance fitness of 0.293 ± 0.2. In the case of G40I, the abundance fitness is reported as -0.394 ± 0.12. Work on G40A yielded an abundance fitness of -0.08 ± 0.12. Variant L49I has an abundance fitness of 0.251 ± 0.16. Work on L49Q yielded an abundance fitness of 0.347 ± 0.16. L49A showed an abundance fitness of 0.081 ± 0.087. With L49M the abundance fitness was 0.148 ± 0.13. L49Y gave an abundance fitness of 0.057 ± 0.15. L49V gave an abundance fitness of 0.104 ± 0.067. Work on L49W yielded an abundance fitness of -0.021 ± 0.13. In the case of T21G, the abundance fitness is reported as -0.004 ± 0.11. Work on K5Q yielded an abundance fitness of -0.281 ± 0.11. With K5A the abundance fitness was -0.245 ± 0.057. With K5M the abundance fitness was -0.165 ± 0.064. With K5H the abundance fitness was -0.3 ± 0.12. K5S gave an abundance fitness of -0.313 ± 0.048. Variant K5G has an abundance fitness of -0.699 ± 0.05. With K5E the abundance fitness was -0.24 ± 0.083. K5Y showed an abundance fitness of -0.145 ± 0.08. For K5T, the abundance fitness was -0.456 ± 0.097. With K5N the abundance fitness was -0.541 ± 0.12. For G8V, the abundance fitness was -0.306 ± 0.085. In the case of G8E, the abundance fitness is reported as -0.119 ± 0.11. Variant G8W has an abundance fitness of -0.342 ± 0.12. With G8F the abundance fitness was -0.202 ± 0.12. Variant G8K has an abundance fitness of -0.174 ± 0.13. Work on G8C yielded an abundance fitness of -0.313 ± 0.097. G8M gave an abundance fitness of -0.137 ± 0.069. For G8S, the abundance fitness was -0.08 ± 0.077. For G8P, the abundance fitness was -0.343 ± 0.1. For L31S, the abundance fitness was -0.433 ± 0.09. Variant L31V has an abundance fitness of -0.284 ± 0.066. With L31E the abundance fitness was -0.339 ± 0.078. Work on L31N yielded an abundance fitness of -0.547 ± 0.18. With L31H the abundance fitness was -0.271 ± 0.15. For L31A, the abundance fitness was -0.117 ± 0.069. L31P gave an abundance fitness of -0.444 ± 0.15. In the case of D23T, the abundance fitness is reported as -0.211 ± 0.13. With D23Y the abundance fitness was -0.119 ± 0.12. In the case of D23E, the abundance fitness is reported as 0.076 ± 0.1. D23C gave an abundance fitness of -0.189 ± 0.072. D23M gave an abundance fitness of -0.234 ± 0.093. For D23N, the abundance fitness was -0.044 ± 0.096. For V27W, the abundance fitness was -0.144 ± 0.14. Work on V27M yielded an abundance fitness of -0.069 ± 0.17. V27H gave an abundance fitness of 0.096 ± 0.14. For V27E, the abundance fitness was -0.148 ± 0.12. V27P showed an abundance fitness of -0.434 ± 0.09. For V27A, the abundance fitness was -0.074 ± 0.087. For V27Y, the abundance fitness was -0.128 ± 0.13. In the case of V27G, the abundance fitness is reported as -0.085 ± 0.082. With V27C the abundance fitness was -0.014 ± 0.091. V27K showed an abundance fitness of -0.132 ± 0.15. With C28R the abundance fitness was -0.752 ± 0.09. Work on C28T yielded an abundance fitness of -0.586 ± 0.16. With C28V the abundance fitness was -0.852 ± 0.17. C28Y gave an abundance fitness of -0.815 ± 0.28. C28E gave an abundance fitness of -0.733 ± 0.13. With T42C the abundance fitness was -0.223 ± 0.096. T42W gave an abundance fitness of -0.37 ± 0.095. With T42A the abundance fitness was -0.162 ± 0.078. For T42P, the abundance fitness was -0.895 ± 0.24. T42M showed an abundance fitness of -0.153 ± 0.13. T42I gave an abundance fitness of -0.342 ± 0.074. Variant T42S has an abundance fitness of -0.116 ± 0.067. T42Q gave an abundance fitness of -0.023 ± 0.11. For K20E, the abundance fitness was -0.47 ± 0.2. K20L showed an abundance fitness of -0.289 ± 0.069. K20F showed an abundance fitness of -0.336 ± 0.14. K20H showed an abundance fitness of -0.101 ± 0.077. In the case of K20M, the abundance fitness is reported as -0.368 ± 0.12. In the case of K20Q, the abundance fitness is reported as -0.47 ± 0.16. With K20W the abundance fitness was -0.569 ± 0.11. Variant K20P has an abundance fitness of -0.561 ± 0.097. K20V showed an abundance fitness of -0.204 ± 0.06. Work on K20D yielded an abundance fitness of -0.118 ± 0.18. Variant K20C has an abundance fitness of -0.071 ± 0.089. With H6R the abundance fitness was 0.078 ± 0.05. H6I gave an abundance fitness of -0.062 ± 0.081. H6Q gave an abundance fitness of 0.011 ± 0.12. Work on H6C yielded an abundance fitness of -0.099 ± 0.11. With H6W the abundance fitness was -0.451 ± 0.11. For H6N, the abundance fitness was -0.003 ± 0.11. H6D gave an abundance fitness of -0.093 ± 0.1. Variant H6T has an abundance fitness of -0.091 ± 0.094. Q45C gave an abundance fitness of -0.186 ± 0.19. Work on Q45P yielded an abundance fitness of -0.429 ± 0.15. Q45K showed an abundance fitness of 0.024 ± 0.11. Work on Q45N yielded an abundance fitness of 0.085 ± 0.2. Variant P22H has an abundance fitness of -0.107 ± 0.19. With P22M the abundance fitness was -0.129 ± 0.076. In the case of P22S, the abundance fitness is reported as 0.037 ± 0.069. P22N showed an abundance fitness of -0.12 ± 0.22. V26E showed an abundance fitness of -0.574 ± 0.13. In the case of V26D, the abundance fitness is reported as -0.509 ± 0.16. In the case of V26N, the abundance fitness is reported as -0.456 ± 0.17. With V26K the abundance fitness was -0.031 ± 0.15. H47S gave an abundance fitness of -1.01 ± 0.29. Variant H47N has an abundance fitness of -0.591 ± 0.1. H47T showed an abundance fitness of -0.695 ± 0.24. Variant H47G has an abundance fitness of -0.643 ± 0.067. In the case of H47P, the abundance fitness is reported as -0.607 ± 0.19. H47L gave an abundance fitness of -0.735 ± 0.11. H47Y showed an abundance fitness of -0.621 ± 0.23. C1G gave an abundance fitness of -0.554 ± 0.071. Y51M gave an abundance fitness of -0.203 ± 0.12. For Y51C, the abundance fitness was -0.21 ± 0.11. For Y51P, the abundance fitness was -0.287 ± 0.074. In the case of Y51G, the abundance fitness is reported as -0.193 ± 0.073. Variant Y51S has an abundance fitness of -0.104 ± 0.085. With Y51N the abundance fitness was 0.075 ± 0.13. Variant Y51K has an abundance fitness of 0.024 ± 0.12. Y51F showed an abundance fitness of 0.097 ± 0.12. Variant Y51D has an abundance fitness of -0.381 ± 0.15. With Y51Q the abundance fitness was -0.163 ± 0.11. A46M showed an abundance fitness of -0.6 ± 0.15. Variant A46C has an abundance fitness of -0.816 ± 0.25. A46L showed an abundance fitness of -0.649 ± 0.11. With A46E the abundance fitness was -0.202 ± 0.082. With N7C the abundance fitness was -0.316 ± 0.097. Variant N7D has an abundance fitness of -0.513 ± 0.1. Work on N7K yielded an abundance fitness of 0.021 ± 0.085. N7W showed an abundance fitness of -0.47 ± 0.056. For N7L, the abundance fitness was -0.311 ± 0.062. In the case of N7V, the abundance fitness is reported as -0.364 ± 0.073. Work on N7S yielded an abundance fitness of -0.054 ± 0.061. With A41G the abundance fitness was -0.08 ± 0.074. For A41C, the abundance fitness was 0.014 ± 0.1. A41K gave an abundance fitness of -0.173 ± 0.11. For A41S, the abundance fitness was -0.014 ± 0.069. Variant A41L has an abundance fitness of -0.032 ± 0.089. With A41W the abundance fitness was -0.383 ± 0.14. Work on T48G yielded an abundance fitness of -0.226 ± 0.056. In the case of T48K, the abundance fitness is reported as 0.052 ± 0.12. For T48H, the abundance fitness was -0.363 ± 0.18. T48W gave an abundance fitness of -0.284 ± 0.077. For T48I, the abundance fitness was -0.417 ± 0.22. Variant T48M has an abundance fitness of -0.12 ± 0.11. Work on T48F yielded an abundance fitness of -0.326 ± 0.073. In the case of K50H, the abundance fitness is reported as -0.249 ± 0.23. K50P showed an abundance fitness of 0.145 ± 0.13. Work on K50C yielded an abundance fitness of -0.42 ± 0.17. With K50T the abundance fitness was -0.117 ± 0.064.

Variants of: B2
Assay: as above
Conditions: Homo sapiens
For I27S, the abundance fitness was -0.753 ± 0.054. Work on E39R yielded an abundance fitness of -0.141 ± 0.051. G52W gave an abundance fitness of -0.053 ± 0.21. L57D gave an abundance fitness of -0.429 ± 0.063. R46Y gave an abundance fitness of -0.698 ± 0.36. In the case of S1D, the abundance fitness is reported as -0.036 ± 0.15. In the case of S1V, the abundance fitness is reported as 0.076 ± 0.11. Variant M2C has an abundance fitness of -0.521 ± 0.095. L42P gave an abundance fitness of -0.5 ± 0.1. For G40K, the abundance fitness was -0.906 ± 0.16. Work on G40E yielded an abundance fitness of -0.685 ± 0.15. M9F gave an abundance fitness of -0.225 ± 0.045. For R6Q, the abundance fitness was -0.495 ± 0.18. In the case of P33R, the abundance fitness is reported as -0.155 ± 0.071. With A5C the abundance fitness was -0.302 ± 0.067. Work on G47Q yielded an abundance fitness of -0.861 ± 0.18. For G10E, the abundance fitness was -0.14 ± 0.09. E41I gave an abundance fitness of -0.073 ± 0.054.
